Patent publication US20250034551A1, “METHODS AND SYSTEMS FOR HIGH-THROUGHPUT BIOCHEMICAL SCREENS” (THINK BIOSCIENCE, INC., priority 2021, published 2025)

Biological target: kinase substrate domain (MidT) fused to the omega subunit of RNA polymerase (RpoZ), no protease recognition site in the linker, P0A800
Sequence (P0A800 whole entry, looked up, the tested form may be a part): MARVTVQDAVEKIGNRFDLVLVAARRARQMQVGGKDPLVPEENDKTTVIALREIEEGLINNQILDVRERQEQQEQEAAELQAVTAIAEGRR

B1: Striatum-enriched protein-tyrosine phosphatase catalytic domain (STEP282-563) (protein)
chain: MSSGVDLGTENLYFQSMSRVLQAEELHEKALDPFLLQAEFFEIPMNFVDPKEYDIPGLVRKNRYKTILPNPHSRVCLTSPDPDDPLSSYINANYIRGYGGEEKVYIATQGPIVSTVADFWRMVWQEHTPIIVMITNIEEMNEKCTEYWPEEQVAYDGVEITVQKVIHTEDYRLRLISLKSGTEERGLKHYWFTSWPDQKTPDRAPPLLHLVREVEEAAQQEGPHCAPIIVHCSAGIGRTGCFIATSICCQQLRQEGVVDILKTTCQLRQDRGGMIQTCEQYQFVHHVMSLYEKQLSHQS
In the case of B1, the “spectinomycin resistance of E. coli with the PTP-specific B2H” value is reported as “did not yield functional two-hybrid systems, most likely due to low activity against the MidT substrate”.
